Several values for one entry are separate records, joined by “and”; a condition that tells them apart may be missing. Identical values can stand only once. Like-named read-outs stand apart in the source and are kept apart here. Where no end group is shown, it is not given here.
T1: human IL-18 receptor (alpha and beta subunits) on HEK-BLUE IL-18 reporter cells (human, UniProt Q13478 19-541; O95256 20-599)
T1 sequence (looked up) 1: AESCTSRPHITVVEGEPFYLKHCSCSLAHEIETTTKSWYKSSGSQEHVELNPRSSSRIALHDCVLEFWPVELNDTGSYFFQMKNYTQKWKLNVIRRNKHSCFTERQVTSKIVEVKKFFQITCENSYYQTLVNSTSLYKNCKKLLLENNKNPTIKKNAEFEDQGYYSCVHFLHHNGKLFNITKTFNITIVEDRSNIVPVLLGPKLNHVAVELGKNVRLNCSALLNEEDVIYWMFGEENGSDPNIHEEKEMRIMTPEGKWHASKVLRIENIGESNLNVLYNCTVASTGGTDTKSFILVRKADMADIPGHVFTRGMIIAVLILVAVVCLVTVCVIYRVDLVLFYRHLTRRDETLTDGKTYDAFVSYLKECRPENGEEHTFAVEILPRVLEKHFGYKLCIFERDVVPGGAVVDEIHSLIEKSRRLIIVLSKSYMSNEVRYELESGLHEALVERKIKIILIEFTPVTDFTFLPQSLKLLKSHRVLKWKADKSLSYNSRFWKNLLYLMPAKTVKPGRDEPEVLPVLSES
T1 sequence (looked up) 2: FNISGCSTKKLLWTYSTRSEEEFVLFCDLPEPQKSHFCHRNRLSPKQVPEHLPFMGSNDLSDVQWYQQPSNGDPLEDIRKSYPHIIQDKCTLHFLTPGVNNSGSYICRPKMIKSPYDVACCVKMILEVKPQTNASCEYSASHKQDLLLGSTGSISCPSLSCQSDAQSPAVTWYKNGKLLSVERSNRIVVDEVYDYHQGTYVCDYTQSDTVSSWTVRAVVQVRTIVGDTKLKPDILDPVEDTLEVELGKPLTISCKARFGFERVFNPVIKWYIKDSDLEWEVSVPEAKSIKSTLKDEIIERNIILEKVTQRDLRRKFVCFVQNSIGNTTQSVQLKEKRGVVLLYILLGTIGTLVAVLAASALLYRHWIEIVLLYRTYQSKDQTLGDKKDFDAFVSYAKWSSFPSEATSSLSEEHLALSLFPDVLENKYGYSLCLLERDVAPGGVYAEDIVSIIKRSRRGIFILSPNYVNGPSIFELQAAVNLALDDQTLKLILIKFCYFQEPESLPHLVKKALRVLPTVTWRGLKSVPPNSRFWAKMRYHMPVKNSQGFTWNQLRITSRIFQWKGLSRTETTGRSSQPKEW

T2: Human recombinant IL-18 (R&D Systems #9124-IL-050/CF) (human, UniProt Q14116 1-193)
T2 sequence: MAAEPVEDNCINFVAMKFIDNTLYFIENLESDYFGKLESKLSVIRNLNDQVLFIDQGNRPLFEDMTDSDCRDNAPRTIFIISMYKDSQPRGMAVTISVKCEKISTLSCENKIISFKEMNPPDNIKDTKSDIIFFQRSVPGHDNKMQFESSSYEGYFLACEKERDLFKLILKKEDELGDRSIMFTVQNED

B1: IL-18 Binding Protein (IL-18BP) Fc fusion (Fc fusion, not shown: a dimerising Fc or GST)
chain: TPVSQTTTAATASVRSTKDPCPSQPPVFPAAKQCPALEVTWPEVEVPLNGTLSLSCVACSRFPNFSILYWLGNGSFIEHLPGRLWEGSTSRERGSTGTQLCKALVLEQLTPALHSTNFSCVLVDPEQVVQRHVVLAQLWAGLRATLPPTQEALPSSHSSPQQQG

How the values were obtained:
[1] = biological target: T1, human IL-18 receptor (alpha and beta …); assay: cell-based or functional assay
[2] = biological target: T1, human IL-18 receptor (alpha and beta …); assay: cell-based or functional assay; remark: listed apart in the source
[3] = biological target: B1; assay: direct binding ELISA; biotinylated peptide on NeutrAvidin, IL-18BP Fc titrated, anti-human IgG Fc-HRP
Protocol: Binding of synthetic monomer peptides to IL-18 Binding Protein (IL-18BP) was measured using a direct binding ELISA. Briefly, 96-well ELISA plates were coated with NeutrAvidin (NA) at 5 μg per well in PBS, washed, then blocked with PBS containing 1% BSA. Wells were washed and representative peptides, synthesized with a C-terminal biotin were diluted to 300 nM in assay buffer and added to the NA coated wells. Wells were washed and serial dilutions starting at 100 nM of IL-18R subunits, IL-18BP from either of two sources (Acro #ILP-H5253 and R&D #119-BP), and control IgG Fc fusions) were added to the wells and incubated for 1 hr at 4° C. Then plates were washed and goat anti-human IgG Fc-HRP (Southern Biotech #2048-05) detection antibody was added for 1 hr. Wells were developed with TMB for 5-15 min and the enzyme reaction was stopped with a H₂SO₄ solution.

[4] = biological target: T2, Human recombinant IL-18 (R&D Systems …); assay: cell-based or functional assay

| Binder | efficacy (% maximum signal (Emax) vs. IL-18 in reporter assay) [2] | potency (EC50), HEK-BLUE IL-18 reporter assay (SEAP) [2] | binding result [3] | also measured |
| --- | --- | --- | --- | --- |
| GGLCWYFGGTVRGPCLPAPAPAPAPAPAPAPAFFECFYSPGHEWCIPSGG (designed binder, not fully specified; cysteine pairing not given here; also: linker of formula V (drawing, may hold non-peptide parts) between beta and alpha moieties) [Dimer 3] | 36% | < 30 nM | – | potency (EC50), HEK-BLUE IL-18 reporter assay (SEAP) [1]: < 10 nM |
| GGICWVPFHYLDELMCTGG-biotin (cysteine pairing not given here, also called bn4D07) [biotinylated 4D07] | – | – | no binding (tested: 100 nM) | – |
| GGLCWYFGGTVRGPCLGG-biotin (cysteine pairing not given here, also called bn-beta family 2 synthetic construct) [biotinylated beta family 2 synthetic construct] | – | – | no binding (tested: 100 nM) | – |
| GGFFECFYSPGHEWCIPSGG-biotin (cysteine pairing not given here, also called bn7C06) [biotinylated 7C06] | – | – | no binding (tested: 100 nM) | – |
| GGCPNWLSDHLSEIWCGG-biotin (cysteine pairing not given here) [C-terminally biotinylated form of peptide 5C09] | – | – | no binding (tested: 100 nM) | – |
| GGCPNWLSDHLSEIWCPAPAPAPAPAPAPAPAFFECFYSPGHEWCIPSGG (designed binder, not fully specified; cysteine pairing not given here; also: linker of formula V (drawing, may hold non-peptide parts) between beta and alpha moieties) [Dimer 2] | 34% | > 100 nM and < 300 nM | – | – |
| GGELCWRPFSFVDCEEGG-biotin (cysteine pairing not given here, also called bn-alpha synthetic F1a Consensus Construct; alpha synthetic F1 peptide, C-terminal biotinylated form) [biotinylated alpha synthetic F1a Consensus Construct] | – | – | no binding (tested: 100 nM) | – |
| GGCPNWLSDHLSEIWCPAPAPAPAPAPAPAPAICWVPFHYLDELMCTGG (designed binder, not fully specified; cysteine pairing not given here; also: linker of formula V (drawing, may hold non-peptide parts) between beta and alpha moieties) [Dimer 1] | 17% | < 1000 nM | – | – |
| B1 | – | – | – | IC50, inhibition of IL-18 bioactivity in HEK-BLUE IL-18 reporter assay [4]: ~1 nM |

Reference: patent publication US20240158457A1 (MEDIKINE, published 2024)
